Reference: US6576442 (SUGEN, dated 2003)

Target: T1, PYK-NN (PYK2 aa 2-285) fused to the LexA DNA binding domain (UniProt P0A7C2 1-202; Q14289 2-285)
T1 construct: Yeast two-hybrid bait
Assay: yeast two-hybrid with heterologous baits
Procedure: The yeast strain L40 containing the reporter genes HIS3 and β-gal under control of upstream LexA-binding site, was used as a host for the two-hybrid screening. […] Yeast strain that express the LexA-PYKN fusion protein was transfected with human brain cDNA library (Clontech #HL404AB) fused to GAL4 transcriptional activation domain. Transformants were plated on agar selection medium lacking Uracil (Ura-), Tryptophane (Trp-), Leucine (Leu-) and Histidine (His-). Resulting colonies were isolated and retested for growth on -Ura-Trp-Leu-His plates and for β-galactosidase activity. Plasmid DNA was purified from colonies that were His+, β-gal+ and used for retransformation of yeast strains expressing heterologous baits to determine the specificity of the interaction.
The yeast two-hybrid system was used to identify proteins that interact with the amino-terminal domain of PYK2. The N-terminal domain of PYK2 was fused to the LexA DNA binding domain and screened a human brain cDNA library. […] The specificity of the interaction was further determined by transformation of this clone into a yeast strain expressing heterologous baits. An interaction was detected in yeast strain expressing either the PYK-N terminal domain, or a shorter version of PYK-N that was missing 48 amino acids from its C-terminal end.

T1 sequence (P0A7C2 other isoform, or with tags, fused parts or gaps limits assumed): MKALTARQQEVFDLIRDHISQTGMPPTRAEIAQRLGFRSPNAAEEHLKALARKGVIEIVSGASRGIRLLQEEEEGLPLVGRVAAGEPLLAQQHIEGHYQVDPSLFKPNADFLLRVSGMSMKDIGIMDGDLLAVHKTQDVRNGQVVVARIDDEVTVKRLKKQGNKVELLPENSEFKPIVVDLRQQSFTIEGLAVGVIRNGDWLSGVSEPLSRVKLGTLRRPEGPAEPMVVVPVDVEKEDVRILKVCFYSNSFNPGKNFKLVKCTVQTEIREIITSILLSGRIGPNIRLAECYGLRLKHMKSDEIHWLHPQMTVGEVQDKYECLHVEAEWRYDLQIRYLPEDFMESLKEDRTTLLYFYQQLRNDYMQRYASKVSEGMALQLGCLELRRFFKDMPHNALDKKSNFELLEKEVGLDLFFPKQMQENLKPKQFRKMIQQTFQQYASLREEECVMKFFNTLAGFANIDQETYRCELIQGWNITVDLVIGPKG

- binding result: no binding
B1: original two hybrid clone containing amino acids 627-975 of hrdgB1, fused to the GAL4 transcriptional activation domain (other, not shown: large carriers)
chain: VKLRNVTANHRANDVIAAEDGPQVLVGRFMYGPLDMVALTGEKVDILVMAEPSSGRWVHLDTEITNSSGRITYNVPRPRRLGVGVYPVKMVVRGDQTCAMSYLTVLPRGMECVVFSIDGSFAASVSIMGSDPKVRPGAVDVVRHWQDLGYMILYITGRPDMQKQRVVSWLSQHNFPQGMIFFSDGLVHDPLRQKAIFLRNLMQECFIKISAAYGSTKDISVYSVLGLPASQIFIVGRPTKKYQTQCQFLSEGYAAHLAVLEASHRSRPKKNNSRMILRKGSFGLHAQPEFLRKRNHLRRTMSVQQPDPPAANPKPERAQSQPESDKDHERPLPALSWARGPPKFESVP
notes: The printed end may count the stop codon; also called GAL10-rdgB1
